The values that follow come from patent publication US20040006777.

The series concerns the target Raytide (synthetic peptide substrate).

B1: T7 tagged Lyp1 (protein)
chain: MDQREILQKFLDEAQSKKITKEEFANEFLKLKRQSTKYKADKTYPTTVAENAKNIKKNRYKDILPYDYSRVELSLITSDEDSSYINANFIKGVYGPKAYIATQGPLSTTLLDFWRMIWEYSVLIIVMACMEYEMGKKKCERYWAEPGEMQLEFGPFSVSCEAEKRKSDYIIRTLKVKFNSETRTIYQFHYKNWPDHDVPSSIDPILELIWDVRCYQEDDSVPICIHCSAGCGRTGVICAIVDYTWMLLKDGIIPENFSVFSLIREMRTQRPSLVQTQEQYELVYNAVLELFKRQMDVIRDKHSGTESQAKHCIPEKNHTLQADSYSPNLPKSTTKAAKMMNQQRTKMEIKESSSFDFRTSEISAKEELVLHPAKSSTSFDFLELNYSFDKNADTTMKWQTKAFPIVGEPLQKHQSLDLGSLLFEGCSNSKPVNAAGRYFNSKVPITRTKSTPFELIQQRETKEVDSKENFSYLESQPHDSCFVEMQAQKVMHVSSAELNYSLPYDSKHQIRNASNVKHHDSSALGVYSYIPLVENPYFSSWPPSGTSSKMSLDLPEKQDGTVFPSSLLPTSSTSLFSYYNSHSSLSLNSPTNISSLLNQESAVLATAPRIDDEIPPPLPVRTPESFIVVEEAGEFSPNVPKSLSSAVKVKIGTSLEWGGTSEPKKFDDSVILRPSKSVKLRSPKSELHQDRSSPPPPLPERTLESFFLADEDCMQAQSIETYSTSYPDTMENSTSSKQTLKTPGKSFTRSKSLKILRNMKKSICNSCPPNKPAESVQSNNSSSFLNFGFANRFSKPKGPRNPPPTWNI
Turning to B1, the “33P release from labelled Raytide, in vitro phosphatase assay with immunoprecipitates” value is on record as “a seven fold increase in ^33P release from the substrate incubated with Lyp immunoprecipitates compared to control immunoprecipitates”.
